# Paper PMC9312489, “Tertiary and Quaternary Structure Organization in GMP Synthetases: Implications for Catalysis” (Biomolecules, 2022)
# Residue numbers refer to the chain shown, from its start. Names may count otherwise.
# B1: Native Plasmodium falciparum GMP synthetase (PfGMPSwt) (enzyme, UniProt Q8IJR9 1-555, looked up)
# chain: MEGEEYDKILVLNFGSQYFHLIVKRLNNIKIFSETKDYGVELKDIKDMNIKGVILSGGPYSVTEAGSPHLKKEVFEYFLEKKIPIFGICYGMQEIAVQMNGEVKKSKTSEYGCTDVNILRNDNINNITYCRNFGDSSSAMDLYSNYKLMNETCCLFENIKSDITTVWMNHNDEVTKIPENFYLVSSSENCLICSIYNKEYNIYGVQYHPEVYESLDGELMFYNFAYNICKCKKQFDPIRYHELELKNIEKYKHDHYVIAAMSGGIDSTVAAAYTHKIFKERFFGIFIDNGLLRKNEAENVYTFLKSTFPDMNITKIDASENFLSNLQGVTDPEQKRKIIGKLFIEEFEKAVNNIDIDINKTFLLQGTLYPDIIESKCSKNLSDTIKTHHNVGGLPKNLKFKLFEPFKYLFKDDVKTLSRELNLPEEITNRHPFPGPGLAIRVIGEINKHKLNILREVDDIFINDLKQYGLYNQISQAFAVLLSSKSVGVRGDARSYDYVCVLRAVKTSSFMTANWYQIPYDILDKITTRILSEVKGVNRILYDVSSKPPATIEFE
# notes: GMP synthetase of Plasmodium falciparum, native gene PF10_0123 (PlasmoDB); also called native enzyme; wild-type enzyme; source: E. coli (pQE30PfGMPS construct), purified (HisTrap HP, Superdex 200 SEC)
# B2: PfGMPS_C89A (enzyme)
# chain: B1 chain with C89A
# notes: GMP synthetase of Plasmodium falciparum (PF10_0123) with the catalytic Cys89 of the GATase domain mutated to alanine; made with pETPfGMPS as template; this is a point mutant made on the plasmid pETPfGMPS; also called C89A single mutant; single mutant enzyme; source: E. coli BL21-CodonPlus(DE3)-RIL (pETPfGMPS mutant construct), purified (HisTrap HP, Superdex 200 SEC)
# Biological target: the molecule itself
# Test: SAXS; samples in solution at ~12 mg/mL, beamline BM29 (ESRF), ATSAS analysis, ab initio shapes
row,Protein,stoichiometry N
1,B1,2
2,B2,2
